We go through one protein from PMC9871250, “Identification of an indole biodegradation gene cluster from Providencia rettgeri and its contribution in selectively biosynthesizing Tyrian purple” (Frontiers in Bioengineering and Biotechnology, 2023).

The term Km denotes the substrate concentration at which the rate is half of its maximum. By kcat is commonly meant the maximal rate divided by the concentration of active sites. The term kcat/Km denotes the turnover number divided by the Michaelis constant.

Substrate in series [1]: c1ccc2[nH]ccc2c1
Put plainly: indigo formation by LC-MS. The class given is biochemical, Methylophaga thalassica. The settings on record: pH 7.5, 30 °C, 250 μM NADH, 0.6% glucose with GDH recycling, unit μm [sic], meant μM, table title says NADH oxidation, methods say indigo/Tyrian purple formation. The source says: indigo formation by LC-MS on MaFMO

Substrate in series [2]: Brc1ccc2cc[nH]c2c1
Put plainly: Tyrian purple formation by LC-MS. The series is classed as biochemical, Methylophaga thalassica. The conditions noted are these: pH 7.5, 30 °C, 250 μM NADH, 0.6% glucose with GDH recycling, unit μm [sic], meant μM, table title says NADH oxidation, methods say indigo/Tyrian purple formation. The source says: Tyrian purple formation by LC-MS on MaFMO

B1: MaFMO (Methylophaga thalassica) (protein)
chain: MATRIAILGAGPSGMAQLRAFQSAQEKGAEIPELVCFEKQADWGGQWNYTWRTGLDENGEPVHSSMYRYLWSNGPKECLEFADYTFDEHFGKPIASYPPREVLWDYIKGRVEKAGVRKYIRFNTAVRHVEFNEDSQTFTVTVQDHTTDTIYSEEFDYVVCCTGHFSTPYVPEFEGFEKFGGRILHAHDFRDALEFKDKTVLLVGSSYSAEDIGSQCYKYGAKKLISCYRTAPMGYKWPENWDERPNLVRVDTENAYFADGSSEKVDAIILCTGYIHHFPFLNDDLRLVTNNRLWPLNLYKGVVWEDNPKFFYIGMQDQWYSFNMFDAQAWYARDVIMGRLPLPSKEEMKADSMAWREKELTLVTAEEMYTYQGDYIQNLIDMTDYPSFDIPATNKTFLEWKHHKKENIMTFRDHSYRSLMTGTMAPKHHTPWIDALDDSLEAYLSDKSEIPVAKEA
notes: synthesized gene, His-tag, E. coli BL21(DE3), Ni-NTA; primers give start MATRIAI, end VAKEA
Regarding B1, in series [1], the Km came to 242.2 µM, the kcat was determined as 0.000246 s⁻¹ and the kcat/Km amounted to 1 M⁻¹ s⁻¹. For the same protein, in series [2], the Km was found to be 303.65 µM, the kcat stood at 0.000521 s⁻¹ and the kcat/Km came to 1.67 M⁻¹ s⁻¹.
